Source: article doi:10.1101/2021.06.15.448552 (bioRxiv, 2021)
Values joined by “and” are separate entries in the source; they are usually repeats but may differ in a detail not shown here. Equal values may be shown once.

Columns and labels:
[1] = target: borneol-type dehydrogenase SrBDH1 from Salvia rosmarinus (S. rosmarinus); assay: cryo-EM structure
[2] = target: borneol-type dehydrogenase SrBDH1 from Salvia rosmarinus (S. rosmarinus); assay: SEC-MALS
SEC-MALS = target: the molecule itself; assay: SEC-MALS

Molecule: borneol-type dehydrogenase SrBDH1 from Salvia rosmarinus (enzyme)
- stoichiometry N [1]: 4
- stoichiometry N [2]: 4

B1: borneol-type dehydrogenase SoBDH2 from Salvia officinalis (enzyme)
chain: MATGAANVESPQSLPLRLLGRVALVTGGSSGIGESIVLLFRKHGAKVCIADVQDNQGQRLCETLGGSSDIAFCHCDVTIEDDVKRAVDFTVDKFGTLDIMVNNAGVSGPPCPDIRDFELSAFDRVFDINVRGVFIGMKHAARIMIPAKKGSIISISSVASTMGGLGPHAYTGSKHAVLGLTKNVAAELGKHGIRVNCVSPYAVATSLALAHLPEAERTEDTWDDFRRFVADNANLQGVELTMEDVANAVVFLASDEARYVSGMNLMVDGGFTSTNHALQVFRP
- stoichiometry N (SEC-MALS): 8 and 4
